Legend:
ISG20 (wild type) [1] = biological target: T1, ISG20 (wild type) (UniProt Q96AZ6 1-181); experiment: EMSA; no Mn2+; bottom 4 bp stated indispensable for binding; ISG20 EMSA: 20 mM HEPES, 100 mM KCl, 1 mM DTT, 0.5 mg/ml BSA, 10% glycerol, 0.05 ug/ul poly[dI-dC], 30 C 30 min, 100 ng RNA, pH not stated; Pol EMSA: 20 mM Tris pH 7.5, 2 mM MgCl2, 15 mM NaCl, 20 mM KCl, 4 mM DTT, yeast tRNA, 30 C 1 h; details: protein: recombinant; label: 5'-32P; hairpin
ISG20 (wild type) [2] = biological target: T1, ISG20 (wild type); experiment: EMSA; no Mn2+; ISG20 EMSA: 20 mM HEPES, 100 mM KCl, 1 mM DTT, 0.5 mg/ml BSA, 10% glycerol, 0.05 ug/ul poly[dI-dC], 30 C 30 min, 100 ng RNA, pH not stated; Pol EMSA: 20 mM Tris pH 7.5, 2 mM MgCl2, 15 mM NaCl, 20 mM KCl, 4 mM DTT, yeast tRNA, 30 C 1 h; details: protein: recombinant; label: 5'-32P; hairpin
ISG20 (wild type) [3] = biological target: T1, ISG20 (wild type); experiment: EMSA; no Mn2+; dose-dependent; supershift with anti-His; competed by 10-40x cold epsilon; ISG20 EMSA: 20 mM HEPES, 100 mM KCl, 1 mM DTT, 0.5 mg/ml BSA, 10% glycerol, 0.05 ug/ul poly[dI-dC], 30 C 30 min, 100 ng RNA, pH not stated; Pol EMSA: 20 mM Tris pH 7.5, 2 mM MgCl2, 15 mM NaCl, 20 mM KCl, 4 mM DTT, yeast tRNA, 30 C 1 h; details: protein: recombinant; label: 5'-32P; stem-loop with bulge and apical loop
ISG20 dExoII = ISG20 dExoII (UniProt Q96AZ6 1-181, del86-101); experiment: EMSA; no Mn2+; binding not reduced, even increased vs wild type; ISG20 EMSA: 20 mM HEPES, 100 mM KCl, 1 mM DTT, 0.5 mg/ml BSA, 10% glycerol, 0.05 ug/ul poly[dI-dC], 30 C 30 min, 100 ng RNA, pH not stated; Pol EMSA: 20 mM Tris pH 7.5, 2 mM MgCl2, 15 mM NaCl, 20 mM KCl, 4 mM DTT, yeast tRNA, 30 C 1 h; details: protein: recombinant; tags: 6xHis (pRSET A); label: 5'-32P; stem-loop with bulge and apical loop
ISG20 dExoI = ISG20 dExoI (UniProt Q96AZ6 1-181, del7-16); experiment: as above; details: protein: recombinant; tags: 6xHis (pRSET A); label: 5'-32P; stem-loop with bulge and apical loop
ISG20 D94G = ISG20 D94G (UniProt Q96AZ6 1-181, D94G); experiment: EMSA; no Mn2+; complex with altered mobility; ISG20 EMSA: 20 mM HEPES, 100 mM KCl, 1 mM DTT, 0.5 mg/ml BSA, 10% glycerol, 0.05 ug/ul poly[dI-dC], 30 C 30 min, 100 ng RNA, pH not stated; Pol EMSA: 20 mM Tris pH 7.5, 2 mM MgCl2, 15 mM NaCl, 20 mM KCl, 4 mM DTT, yeast tRNA, 30 C 1 h; details: protein: recombinant; tags: 6xHis (pRSET A); label: 5'-32P; stem-loop with bulge and apical loop
ISG20 dExoIII = ISG20 dExoIII (UniProt Q96AZ6 1-181, del147-157); experiment: EMSA; no Mn2+; binding completely lost; ISG20 EMSA: 20 mM HEPES, 100 mM KCl, 1 mM DTT, 0.5 mg/ml BSA, 10% glycerol, 0.05 ug/ul poly[dI-dC], 30 C 30 min, 100 ng RNA, pH not stated; Pol EMSA: 20 mM Tris pH 7.5, 2 mM MgCl2, 15 mM NaCl, 20 mM KCl, 4 mM DTT, yeast tRNA, 30 C 1 h; details: protein: recombinant; tags: 6xHis (pRSET A); label: 5'-32P; stem-loop with bulge and apical loop

CAUGUCCUACUGUUCUGGGGCAUG (structured_RNA) [Lower stem d4bp + bulge (LSd4+B)]: no binding (ISG20 (wild type) [1]).

CUUGUUCAUGUCCUACUGUUCUGGGGCAUGGACAUC (structured_RNA) [Lower stem + bulge (LS+B)]: binds (ISG20 (wild type) [2]).

CUUGUUCAUGUCCUACUAAAAUGGGGCAUGGACAUC (structured_RNA) [Lower stem + bulge mutant (LS+Bm)]: binds (ISG20 (wild type) [2]).

B1: HBV epsilon full length (FL) (structured_RNA)
RNA: CUUGUUCAUGUCCUACUGUUCAAGCCUCCAAGCUGUGCCUUGGGUGGCUUUGGGGCAUGGACAUC
B1: binds (ISG20 (wild type) [3]); binds (ISG20 dExoII); binds (ISG20 dExoI). B1: binds (ISG20 D94G); no binding (ISG20 dExoIII).

UCAAGCCUCCAAGCUGUGCCUUGGGUGGCUUUG (structured_RNA) [Upper stem + loop (US+L)]: no binding (ISG20 (wild type) [2]).
